Results as given in the supplement of paper PMC9732359.
± gives the uncertainty stated by the source.

Experiment: protein stability index of a GFP-peptide fusion (yeast GPS) (PSI 1-4); higher = more stable; sorted into four equal gates, so the index is relative within each strain
Summary of the method: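 Tiled yeast protein peptides of 17 residues were each joined downstream of GFP, on plasmids that also express Cherry. The pooled library was maintained in yeast, and mid-log cultures in leucine-free medium were sorted into four equal gates on the GFP/Cherry ratio. Plasmids from every gate were amplified by PCR and sequenced on Illumina, with barcodes linking reads to strains. The protein stability index of a peptide is its gate-number-weighted read frequency summed over the gates.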

| Sequence | protein stability index (doa10∆) | protein stability index (pdr5∆) | protein stability index (san1∆) | protein stability index (ubr1∆) |
| --- | --- | --- | --- | --- |
| AFRRIMISEVPSVAAEY [RPC40] | 1.35 ± 0.052 | 1.49 ± 0.056 | 1.51 ± 0.079 | 1.25 ± 0.049 |
| AFTRKQANQVKRHSYAQ [RPS1A] | 1.8 ± 0.024 | 1.75 ± 0.024 | 2.03 ± 0.034 | 2.01 ± 0.027 |
| AFVPKKRKTNIIMFVGL [SRP54] | 2.03 ± 0.1 | 2.16 ± 0.088 | 1.86 ± 0.18 | 2.26 ± 0.051 |
| AGCKIDNVDDIGEFNVS [YDL088C/ASM4] | 3.25 ± 0.11 | 2.8 ± 0.097 | 2.94 ± 0.096 | 3.06 ± 0.14 |
| AGDIQLQYGWKVERHIM [RPO21] | 1.18 ± 0.067 | 1.24 ± 0.12 | 1.36 ± 0.19 | 1.24 ± 0.098 |
| AGENAPSIVFIDEIDAI [RPT2] | 2.03 ± 0.17 | 2.46 ± 0.21 | 1.74 ± 0.18 | 1.86 ± 0.14 |
| AGETLILDGLTVRLVNL [SRB2] | 2.43 ± 0.071 | 2.97 ± 0.082 | 2.46 ± 0.073 | 2.66 ± 0.052 |
| AGGEAGEAEAEKEEEEA [RPP1A] |  | 3.47 ± 0.21 | 2.54 ± 0.22 | 3.5 ± 0.18 |
| AGKFELLDRILPKLKAT [SNF2] | 1.18 ± 0.17 | 2.05 ± 0.14 | 1.77 ± 0.19 | 1.95 ± 0.17 |
| AGNIKCRNDAVNWLAYT [BRR2] | 3.13 ± 0.05 | 3.49 ± 0.039 | 3.16 ± 0.034 | 3.24 ± 0.035 |
| AGTKITICIELKTVLHN [RGR1] | 1.18 ± 0.062 | 1.32 ± 0.07 | 1.39 ± 0.13 | 1.49 ± 0.09 |
| AHMSIGCLHKGKLISNL [YML031W/NDC1] | 2.04 ± 0.079 | 1.9 ± 0.058 | 2.14 ± 0.15 | 1.83 ± 0.065 |
| AHMWPRVHDQPLIWQLL [POP3] | 1.42 ± 0.12 | 1.64 ± 0.12 | 1.44 ± 0.23 | 1.51 ± 0.11 |
| AHRIMLTNILRMMGCVK [FAS2] | 1.86 ± 0.061 | 1.87 ± 0.06 | 1.9 ± 0.12 | 2.41 ± 0.19 |
| AHRVRDLMDEELRKHAQ [SKI6] | 3.14 ± 0.14 | 3.39 ± 0.12 | 2.83 ± 0.12 | 3.29 ± 0.064 |
| AICRNHIMEPCIECQPK [HRT1] | 2.26 ± 0.081 | 3.23 ± 0.13 | 2.17 ± 0.094 | 2.67 ± 0.074 |
| AIDHLKAELEKQKSWVP [YIL149C/MLP2] | 3.05 ± 0.076 | 2.83 ± 0.073 | 2.98 ± 0.11 | 2.91 ± 0.051 |
| AIKKSSMKMELLKKELL [SMC2] | 2.89 ± 0.17 | 2.19 ± 0.095 | 2.78 ± 0.2 | 2.13 ± 0.081 |
| AILLIINLTQTYGISVV [NUT1] | 1.53 ± 0.049 | 1.34 ± 0.043 | 1.7 ± 0.081 | 1.43 ± 0.04 |
| AILRQQQQMANNNGNPG [GAL11] | 2.77 ± 0.12 | 3.19 ± 0.13 | 2.7 ± 0.12 | 3.17 ± 0.05 |
| AIPNSIIKRSNGQSLSP [YMR153W/NUP53] | 2.14 ± 0.12 | 2.68 ± 0.049 | 2.71 ± 0.061 | 2.69 ± 0.037 |
| AIQKKDNKDKEGNAGGD [YOR098C/NUP1] | 3.44 ± 0.17 | 3.32 ± 0.18 | 3.25 ± 0.1 | 3.44 ± 0.11 |
| AIQMVDPASFYLFDEID [SMC3] | 1.95 ± 0.042 | 2.32 ± 0.049 | 2.66 ± 0.067 | 2.07 ± 0.045 |
| AISKKNKSLKYVIHGIE [LIN1] | 2.02 ± 0.058 | 1.84 ± 0.053 | 2.11 ± 0.084 | 1.84 ± 0.04 |
| AIVFEEIKNWISDIPYV [YMR129W/POM152] | 1.36 ± 0.043 | 1.42 ± 0.045 | 1.36 ± 0.075 | 1.72 ± 0.054 |
| AKAPSGLDQSRIPFSER [FAS1] | 2.19 ± 0.081 | 2.19 ± 0.061 | 2.12 ± 0.25 | 2.56 ± 0.047 |
| AKFFLNVSDEQLSNWQK [ITC1] | 3.21 ± 0.073 | 3.21 ± 0.053 | 3.18 ± 0.063 | 3.17 ± 0.072 |
